Here are results for 6 molecules from PMC8690919 (Theranostics, 2022).

Assay [1] concerns the target RBD-VLP (SARS-CoV-2, UniProt P0DTC2). Put plainly: ELISA. To be noted: both partners purified.
The target of assay [2] is T1, SARS-CoV-2 spike protein (Wuhan strain), full length, expressed on MDCK cells (SARS-CoV-2, UniProt P0DTC2).
T1 construct: source: MDCK-SIAT1 cells stably transfected (lentiviral vector), on cells
Put plainly: flow cytometry on cells. The settings on record: one partner purified.

B1: FI-3A human monoclonal antibody (IgG1) (antibody, V domains shown)
VH: EVQLLESGGGLIQPGGSLRLSCAASGFTVSSNYMSWVRQAPGKGLEWVSVIYSGGSTYYADSVKGRFTISRDNSKNTLYLQMNSLRAEDTAVYYCARDHVRPGMNIWGQGTMVTVSS
VL: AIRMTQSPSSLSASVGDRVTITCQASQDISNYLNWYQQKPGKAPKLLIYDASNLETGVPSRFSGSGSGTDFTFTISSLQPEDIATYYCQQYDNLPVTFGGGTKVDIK
As to B1, the binding result in assay [1] and in assay [2] was “binds” in each case.

B2: FD-11A human monoclonal antibody (IgG1) (antibody, V domains shown)
VH: EVQLVESGGGVVQPGRSLRLSCAASGFTFSSYGMHWVRQAPGKGLEWVAVIWYDGSNKYYADSVKGRFTISRDNSKNTLYLQMNSLRAEDTAVYYCAKGPDILTGYYNYYYYGMDVWGQGTMVTVSS
VL: QSVLTQPPSVSGAPGQRVTISCTGSSSNIGAGYDVHWYQQLPGTAPKLLIYGNSNRPSGVPDRFSGSKSGTSASLAITGLQAEDEADYYCQSYDSSLSGFYVVFGGGTKLTVL
For the molecule B2, the binding result in assay [1] and in assay [2] was “binds” in each case.

B3: REGN10987 monoclonal antibody (antibody, V domains shown)
VH: QVQLVESGGGVVQPGRSLRLSCAASGFTFSNYAMYWVRQAPGKGLEWVAVISYDGSNKYYADSVKGRFTISRDNSKNTLYLQMNSLRTEDTAVYYCASGSDYGDYLLVYWGQGTLVTVSS
VL: QSALTQPASVSGSPGQSITISCTGTSSDVGGYNYVSWYQQHPGKAPKLMIYDVSKRPSGVSNRFSGSKSGNTASLTISGLQSEDEADYYCNSLTSISTWVFGGGTKLTVL
notes: also called REGN10977 (as printed once)
In the case of B3, the binding result in assay [1] is given as “binds”.

B4: EY-6A human monoclonal antibody (IgG1) (antibody, V domains shown)
VH: EVQLVESGGGVVQPGRSLRLSCAASAFTFSSYDMHWVRQAPGKGLEWVAVISYDGSNKYYADSVKGRFTISRDNSKNTLYLQMNSLRAEDTAVYYCAKDGGKLWVYYFDYWGQGTLVTVSS
VL: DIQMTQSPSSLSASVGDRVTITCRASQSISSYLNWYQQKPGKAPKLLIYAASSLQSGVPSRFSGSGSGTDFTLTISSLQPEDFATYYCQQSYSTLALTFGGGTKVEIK
B4: the binding result in assay [1] and in assay [2] was “binds” in each case.

B5: REGN10933 monoclonal antibody (antibody, V domains shown)
VH: QVQLVESGGGLVKPGGSLRLSCAASGFTFSDYYMSWIRQAPGKGLEWVSYITYSGSTIYYADSVKGRFTISRDNAKSSLYLQMNSLRAEDTAVYYCARDRGTTMVPFDYWGQGTLVTVSS
VL: DIQMTQSPSSLSASVGDRVTITCQASQDITNYLNWYQQKPGKAPKLLIYAASNLETGVPSRFSGSGSGTDFTFTISGLQPEDIATYYCQQYDNLPLTFGGGTKVEIK
notes: source: ExpiCHO cells, purified (MabSelect SuRe, desalted)
Take B5: the binding result in assay [1] was “binds”.

B6: FD-5D human monoclonal antibody (IgG1) (antibody, V domains shown)
VH: EVQLVESGGGLVQPGGSLRLSCAASGFTFSSYSMNWVRQAPGKGLEWVSYISSSSSTIYYADSVKGRFTISRDNAKNSLYLQMNSLRAEDTAVYYCASPGGITAAGTSVLFGYYGMDVWGQGTTVTVSS
VL: not shown
notes: as for B5
With B6, in assay [1], the binding result is on record as “binds”.
